# From US20170152290A1 (CENTRO DE INGENIERIA GEN TICA Y BIOTECHNOLOGIA, published 2017)
# T1: activated human alfa-2-macroglobulin (α2M_MeNH2) (human, UniProt P01023 24-1474)
# T1 construct: mature
# T1 sequence (looked up): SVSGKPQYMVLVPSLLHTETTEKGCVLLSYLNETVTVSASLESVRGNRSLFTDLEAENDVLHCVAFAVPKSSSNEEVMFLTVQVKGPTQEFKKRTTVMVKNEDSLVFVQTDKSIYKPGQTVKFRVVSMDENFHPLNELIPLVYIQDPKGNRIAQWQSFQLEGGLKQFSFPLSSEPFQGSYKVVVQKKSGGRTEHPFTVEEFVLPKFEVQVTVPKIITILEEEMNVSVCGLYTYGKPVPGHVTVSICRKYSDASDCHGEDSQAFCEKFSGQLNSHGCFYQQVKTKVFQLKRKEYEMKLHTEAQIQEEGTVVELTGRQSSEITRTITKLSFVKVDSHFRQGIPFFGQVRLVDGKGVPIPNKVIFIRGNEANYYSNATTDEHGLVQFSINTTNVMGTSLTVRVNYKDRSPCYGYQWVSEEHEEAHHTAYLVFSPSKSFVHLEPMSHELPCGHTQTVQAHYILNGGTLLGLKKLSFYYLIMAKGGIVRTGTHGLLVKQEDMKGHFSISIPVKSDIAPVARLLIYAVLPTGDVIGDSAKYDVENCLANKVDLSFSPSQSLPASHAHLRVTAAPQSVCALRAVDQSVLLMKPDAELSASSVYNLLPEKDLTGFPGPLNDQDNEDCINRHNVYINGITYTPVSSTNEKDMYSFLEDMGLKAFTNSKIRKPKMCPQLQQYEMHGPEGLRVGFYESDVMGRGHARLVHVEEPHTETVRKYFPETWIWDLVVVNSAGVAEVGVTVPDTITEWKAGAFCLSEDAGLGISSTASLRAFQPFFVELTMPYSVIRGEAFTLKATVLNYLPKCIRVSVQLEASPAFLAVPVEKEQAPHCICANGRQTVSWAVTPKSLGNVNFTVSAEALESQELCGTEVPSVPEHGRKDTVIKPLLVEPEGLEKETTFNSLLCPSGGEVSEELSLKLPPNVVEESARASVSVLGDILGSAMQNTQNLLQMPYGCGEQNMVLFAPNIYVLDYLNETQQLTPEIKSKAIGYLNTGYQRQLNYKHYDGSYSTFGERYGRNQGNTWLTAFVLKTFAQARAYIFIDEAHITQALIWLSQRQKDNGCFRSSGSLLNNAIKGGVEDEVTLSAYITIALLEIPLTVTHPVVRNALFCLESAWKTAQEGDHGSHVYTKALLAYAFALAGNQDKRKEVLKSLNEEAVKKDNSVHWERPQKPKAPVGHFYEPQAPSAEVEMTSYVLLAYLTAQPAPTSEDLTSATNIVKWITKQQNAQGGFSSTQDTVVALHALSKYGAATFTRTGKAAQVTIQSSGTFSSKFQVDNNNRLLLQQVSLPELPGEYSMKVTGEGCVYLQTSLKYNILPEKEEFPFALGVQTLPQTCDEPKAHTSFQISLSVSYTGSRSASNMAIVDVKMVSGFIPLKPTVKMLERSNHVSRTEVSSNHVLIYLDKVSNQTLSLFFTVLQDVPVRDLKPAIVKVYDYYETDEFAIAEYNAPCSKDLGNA
# Target: recombinant Human Serum Albumin (rHSA) (human, UniProt P02768 25-609)
# Assay: SPR (Biacore X), CM5 chip, sLRP1-CIV immobilised on Fc1 and rHSA on Fc2, analyte at 100 nM
row,Binder,binding result
1,"Receptor-Associated Protein (RAP) (ligand, UniProt P30533 35-357, looked up) YSREKNQPKPSPKRESGEEFRMEKLNQLWEKAQRLHLPPVRLAELHADLKIQERDELAWKKLKLDGLDEDGEKEARLIRNLNVILAKYGLDGKKDARQVTSNSLSGTQEDGLDDPRLEKLWHKAKTSGKFSGEELDKLWREFLHHKEKVHEYNVLLETLSRTEEIHENVISPSDLSDIKGSVLHSRHTELKEKLRSINQGLDRLRRVSHQGYSTEAEFEEPRVIDLWDLAQSANLTDKELEAFREELKHFEAKIEKHNHYQKQLEIAHEKLRHAESVGDGERVSRSREKHALLEGRTKELGYTVKKHLQDLSGRISRARHNEL",no binding (tested: 100 nM)

# Target: T1, activated human alfa-2-macroglobulin …
# Assay: competition ELISA, α2M* coated, DIIIE1PRSbiot as labelled ligand
Binder,fold increase of IC50 against wild-type DIIIE1PRS,fold reduction of affinity against wild-type DIIIE1PRS
"DIIIE1PRS alanine mutant, variant E375 (other, also called Glu375 to Ala) MDKLTLKGMSYVMCTGSFKLEKEVAETQHGTVLVQVKYEGTDAPCKIPFSTQDEKGVTQNGRLITANPIVTDKEKPVNIETEPPFGASYIVVGAGEKALKLSWFKKGSSIGVDHHHHHH",≥ 2 fold,–
"DIIIE1PRS alanine mutant, variant N366 (other, also called Asn366 to Ala) MDKLTLKGMSYVMCTGSFKLEKEVAETQHGTVLVQVKYEGTDAPCKIPFSTQDEKGVTQNGRLITANPIVTDKEKPVAIETEPPFGESYIVVGAGEKALKLSWFKKGSSIGVDHHHHHH",≥ 2 fold,–
"DIIIE1PRS alanine mutant, variant E362 (other) MDKLTLKGMSYVMCTGSFKLEKEVAETQHGTVLVQVKYEGTDAPCKIPFSTQDEKGVTQNGRLITANPIVTDKAKPVNIETEPPFGESYIVVGAGEKALKLSWFKKGSSIGVDHHHHHH",> 10 fold,–
"DIIIE1PRS alanine mutant, variant K385 (other, also called Lys385 to Ala) MDKLTLKGMSYVMCTGSFKLEKEVAETQHGTVLVQVKYEGTDAPCKIPFSTQDEKGVTQNGRLITANPIVTDKEKPVNIETEPPFGESYIVVGAGEAALKLSWFKKGSSIGVDHHHHHH",> 10 fold,> 22 fold
"DIIIE1PRS alanine mutant, variant K363 (other, also called Lys363 to Ala) MDKLTLKGMSYVMCTGSFKLEKEVAETQHGTVLVQVKYEGTDAPCKIPFSTQDEKGVTQNGRLITANPIVTDKEAPVNIETEPPFGESYIVVGAGEKALKLSWFKKGSSIGVDHHHHHH",≥ 2 fold,–
"DIIIE1PRS alanine mutant, variant V365 (other, also called Val365 to Ala) MDKLTLKGMSYVMCTGSFKLEKEVAETQHGTVLVQVKYEGTDAPCKIPFSTQDEKGVTQNGRLITANPIVTDKEKPANIETEPPFGESYIVVGAGEKALKLSWFKKGSSIGVDHHHHHH",> 10 fold,–
"DIIIE1PRS alanine mutant, variant G374 (other, also called Gly374 to Ala) MDKLTLKGMSYVMCTGSFKLEKEVAETQHGTVLVQVKYEGTDAPCKIPFSTQDEKGVTQNGRLITANPIVTDKEKPVNIETEPPFAESYIVVGAGEKALKLSWFKKGSSIGVDHHHHHH",≥ 2 fold,–
"DIIIE1PRS alanine mutant, variant R350 (other, also called Arg350 to Ala) MDKLTLKGMSYVMCTGSFKLEKEVAETQHGTVLVQVKYEGTDAPCKIPFSTQDEKGVTQNGALITANPIVTDKEKPVNIETEPPFGESYIVVGAGEKALKLSWFKKGSSIGVDHHHHHH",≥ 2 fold,–
"DIIIE1PRS alanine mutant, variant E342 (other, also called Glu342 to Ala) MDKLTLKGMSYVMCTGSFKLEKEVAETQHGTVLVQVKYEGTDAPCKIPFSTQDAKGVTQNGRLITANPIVTDKEKPVNIETEPPFGESYIVVGAGEKALKLSWFKKGSSIGVDHHHHHH",≥ 2 fold,–
"DIIIE1PRS alanine mutant, variant T346 (other) MDKLTLKGMSYVMCTGSFKLEKEVAETQHGTVLVQVKYEGTDAPCKIPFSTQDEKGVAQNGRLITANPIVTDKEKPVNIETEPPFGESYIVVGAGEKALKLSWFKKGSSIGVDHHHHHH",≥ 2 fold,–
"DIIIE1PRS alanine mutant, variant P364 (other) MDKLTLKGMSYVMCTGSFKLEKEVAETQHGTVLVQVKYEGTDAPCKIPFSTQDEKGVTQNGRLITANPIVTDKEKAVNIETEPPFGESYIVVGAGEKALKLSWFKKGSSIGVDHHHHHH",> 10 fold,–
"DIIIE1PRS alanine mutant, variant K361 (other, also called Lys361 to Ala) MDKLTLKGMSYVMCTGSFKLEKEVAETQHGTVLVQVKYEGTDAPCKIPFSTQDEKGVTQNGRLITANPIVTDAEKPVNIETEPPFGESYIVVGAGEKALKLSWFKKGSSIGVDHHHHHH",> 10 fold,–
"DIIIE1PRS alanine mutant, variant P372 (other, also called Pro372 to Ala) MDKLTLKGMSYVMCTGSFKLEKEVAETQHGTVLVQVKYEGTDAPCKIPFSTQDEKGVTQNGRLITANPIVTDKEKPVNIETEPAFGESYIVVGAGEKALKLSWFKKGSSIGVDHHHHHH",≥ 2 fold,–
